Here are results for 39 sequences from the supplement of paper PMC9170038.

Series [1] deals with MS2 coat protein. Nature of the series: apparent KD of MS2 coat protein, switch OFF state (with FMN for OFF switches, without FMN for ON switches); designed switch direction (-1 OFF switch, 1 ON switch): -1; higher = weaker reporter binding. Particulars: FMN input: 0 or 200 uM; Eterna round: R93 (includes R88 designs). The gist of the method:
(§1)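 Designed RNA switches, transcribed on-chip from Illumina sequencing clusters, were titrated with SNAP-549-labelled MS2 coat protein from 0.7 or 1.5 nM to 3 µM in twofold steps. The solution was 100 mM Tris-HCl pH 7.5, 80 mM KCl, 4 mM MgCl2, with constant ligand or without it. Apparent KD is the median over each design's normalised cluster binding-curve fits.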

In series [2] the test system is MS2 coat protein. Nature of the series: apparent KD of MS2 coat protein, switch ON state; designed switch direction (-1 OFF switch, 1 ON switch): -1; higher = weaker reporter binding. Conditions: FMN input: 0 or 200 uM; Eterna round: R93 (includes R88 designs). The gist of the method: as §1

Turning to “CAAAGGUGAGGAUAUACGAGGAUAUGACGAAAGUCAUAAAAACAUGAGGAUCACCCAUGUAGAAGGCACCACAA [E2 64% 5]”, the “apparent KD of MS2 coat protein” value in series [1] worked out at 32.8 nM; in series [2], 27.8 nM.
With “CUCAAGUAAGGAUAUGAAAGAAAAGAAGAGAAAGAAAAGAAUCAGAAGGUACAUGAGGAUCACCCAUGUAAGAA [EteRNA is fun!]”, the “apparent KD of MS2 coat protein” value in series [1] is 23.1 nM; in series [2], 30.3 nM.
In the same order, the values of “AAAAAUGGAGGAUAUACAUGAGGAUCACCCAUGUGAAACAAAACAAAAAACAAAAAAAGUAGAAGGCCAAAAAA [Gilly Gone Silly 3 - Jieux - Exclusion 3]” are 40.1 nM and 31.2 nM.
As to “CUCAAGUAAGGAUAUCGAAGAAAAGAAGAGAAAGAAAAGAACGAGAAGGUACAUGAGGAUCACCCAUGUAAGAA [EteRNA is fun!]”, the “apparent KD of MS2 coat protein” value in series [1] is 28 nM; in series [2] it was 32.4 nM.
The matching figures for “AAAAAGUGAGGAUAUUCGGAAGGGAAAGCGCAAACCCAACCGAAGAAGGCACAUGAGGAUCACCCAUGUAAAAA [Ecls4-III 65% - Early G segment 1]”: 35.2 nM and 30.6 nM.
For “GGUUGGCGAGGAUAUACAUGAGGAUCACCCAUGUGAGAGAAAAAAGUAAGAAAGAAAAGUAGAAGGCGCUGACG [salish99-ex3-51]”, the figures for the “apparent KD of MS2 coat protein” value in series [1] and in series [2] were 87.8 nM and 30.7 nM, respectively.
Take “CAGUACUGAGGAUAUACAUGAGGAUCACCCAUGUGAUCAAGCUACGAAAGUAGCACAUGUAGAAGGCAGUACUG [Ex3: 808]”: the results for the “apparent KD of MS2 coat protein” value in series [1] and in series [2] were 19.1 nM and 24 nM, respectively.
In the same order, the values of “AACAGUACAGGAUAUACAUGAGGAUCACCCAUGUGAAGAAUAAGUGGAGUACCACAAAGUAGAAGGGUACUGGA [Ruby 88]” are 104 nM and 31.8 nM.
In the same order, the values of “AAAAAUGGAGGAUAUACAUGAGGAUCACCCAUGUGUGGCCAUACUAUGUGGUCGUCAGGUAGAAGGCCAAAAAA [Gilly Gone Silly 23 - Jieux - Exclusion 3]” are 178 nM and 24.9 nM.
Take “AAAACGGCAGGAUAUACAGAUGAGAUCUCGACCGAAAAAAAACAUGAGGAUCACCCAUGUAGAAGGGCCAAAAA [Ex2 Malc#5]”: the “apparent KD of MS2 coat protein” value in series [1] is 60.9 nM; in series [2] it was 30.1 nM.
In the same order, the values of “CUCAUGUGAGGAUAUCAGUAGUAAAAAAAAAAAAUUACUACUGAGAAGGCACAUGAGGAUCACCCAUGUACCUU [EX4 326: Super Stable 26]” are 42.6 nM and 37.7 nM.
Consider “AGAAUACAUGAGGAUCACCCAUGUGAGGAUAUGUAGAUAAAAAUAAAAUAAAAUAAAUACAGAAGGCGCAAAAG [EX 1 May 20]”, for which the “apparent KD of MS2 coat protein” value in series [1] is 44.9 nM; in series [2], 44.5 nM.
The matching figures for “AGAAAACAUGAGGAUCACCCAUGUAAGGAUAUGCUAAGGGUGGCUUCGGCCACCCAAUGCAGAAGGUACAAAUA [Excalibur]”: 40.7 nM and 20.5 nM.
Take “AAGAAGAAAGGAUAUACAAGGAAGAAAGAAAAGAAAAGAAAACAUGAGGAUCACCCAUGUAGAAGGUUCUAGAA [EteRNA is fun!]”: the “apparent KD of MS2 coat protein” value stood at 9.5 nM in series [1] and 15.2 nM in series [2].
With “AAGAGUAGAGGAUAUACAUGAGGAUCACCCAUGUAAUCCAGAUAAGGAAGCAUGUCGUGUAGAAGGCUGCAUGA [MOD 2 of Nando (MS2 Riboswitches- Exclusion 3)]”, the “apparent KD of MS2 coat protein” value turned out to be 14.4 nM in series [1] and 15.9 nM in series [2].
Take “AAAAAGUUAGGAUAUACAUGAGGAUCACCCAUGUGCACGUAUGGAGAAUAUGGUGGUAGUAGAAGGGACAAAAA [EX2 Malc#18]”: the “apparent KD of MS2 coat protein” value in series [1] worked out at 66.6 nM; in series [2], 55.3 nM.
As for “AAAAAGUGAGGAUAUACAUGAGGAUCACCCAUGUGUAUAAAAAAUUACACAAAAGCAUGUAGAAGGCACUAAAA [JL In the Red]”, the “apparent KD of MS2 coat protein” value in series [1] was determined as 143 nM; in series [2] it was 37 nM.
On to “AACAGUACAGGAUAUACAUGAGGAUCACCCAUGUGAGAAAUAAGUGGCGUACCACAAAGUAGAAGGGUACUGGA [Mat - Exclusion 3 - JL mod - D21]”, for which the “apparent KD of MS2 coat protein” value was found to be 150 nM in series [1] and 32.6 nM in series [2].
The matching figures for “AUCAUGUCAGGAUAUCGUGCAGCUACCGAAAGGUAGCUGCACGAGAAGGGACAUGAGGAUCACCCAUGUAUGAA”: 24.3 nM and 27.7 nM.
With “AAUAACAGAGGAUAUGCGAAAAUAAGCGGAAACGCAAAGGGACAUGAGGAUCACCCAUGUAGAAGGCUGGAUAA [Tetraloop... 61% 1]”, the “apparent KD of MS2 coat protein” value worked out at 29.5 nM in series [1] and 34.4 nM in series [2].
The matching figures for “AACUGGGCAGGAUAUACAUGAGGAUCACCCAUGUAAAGAAAAGAAAGAUCCGAAGAAAGUAGAAGGGCCUGGAA [Variant 3 of Mod 1 of Ex3 sub 3, by Tesla's Dusciple Round 1]”: 126 nM and 98 nM.
“AACAAGUGAGGAUAUGAAAAUAAAACAAACAAACAAAUAAAUCAGAAGGCACAUGAGGAUCACCCAUGUAAAAA [JR_Exc004_Sub1203]”: the “apparent KD of MS2 coat protein” value in series [1] worked out at 18.5 nM; in series [2] it was 17.1 nM.
For the sequence “ACGACUAGAGGAUAUACAUGAGGAUCACCCAUGUAACUGUCAGAAAACUGACGGAGAUGUAGAAGGCUAGUCGA [Mat - Exclusion 3 - Neo mod - D80]”, the “apparent KD of MS2 coat protein” value in series [1] is 36.1 nM; in series [2] it was 16.7 nM.
In the same order, the values of “AAUAUGUUAGGAUAUGCUGCUCGUCACAAAAGUGAUGAGUAGCAGAAGGAACAUGAGGAUCACCCAUGUAAAGA [JL eternac mod 12]” are 39 nM and 31.1 nM.
In the same order, the values of “AAUAACCGAGGAUAUACAUGAGGAUCACCCAUGUGAACAUCCACGAAAAGGAUUCUGUGUAGAAGGCGGAAACC [Soquar]” are 13.4 nM and 15.3 nM.
In the same order, the values of “CUCUAGUAAGGAUAUCGAAGAAAAGAAAAGAAAGAAAAGAACGAGAAGGUACAUGAGGAUCACCCAUGUAAGAA [EteRNA is fun!]” are 19 nM and 34.5 nM.
Turning to “AAGAACUCAGGAUAUACAUGAGGAUCACCCAUGUAAAAGAAAGAGGGAAAAGAGAAAAGUAGAAGGGAGAAGAA [Ptolemy IV Philopator]”, the “apparent KD of MS2 coat protein” value in series [1] came to 46.9 nM; in series [2] it was 14 nM.
In the same order, the values of “AAAAAGCGAGGAUAUACAUGAGGAUCACCCAUGUCAAAAAAAUAGAAAAAAAUAAAAAGUAGAAGGCGCAAAAA [Ex 3 #1]” are 63.6 nM and 75.8 nM.
In the same order, the values of “AACAGUACAGGAUAUACAUGAGGAUCACCCAUGUGAAAAUUAAGUGGAGAACCACAGUGUAGAAGGGUACUGGA [Mat - Exclusion 3 - Eli mod - D52]” are 49.8 nM and 142 nM.
Regarding “AGCACGUCAGGAUAUACGAAAAAAAAGGGUAAACUAAAGGGACAUGAGGAUCACCCAUGUAGAAGGGACAAGCA [Diamond 92]”, the “apparent KD of MS2 coat protein” value in series [1] is 245 nM; in series [2] it was 90.8 nM.
In the same order, the values of “AAGAAGCAAGGAUAUACAUGAAAGAAAGAAAAGAAAAGAAAACAUGAGGAUCACCCAUGUAGAAGGUGCUAGAA [EteRNA is fun!]” are 47.8 nM and 34.6 nM.
For “AAAAAACAUGAGGAUCACCCAUGUCAGGAUAUCUGUAUUCAAUCCUCGGAUUGAAUACAGAGAAGGGAUAUGAA [Ex1: 604]”, the “apparent KD of MS2 coat protein” value is 62.2 nM in series [1] and 42.2 nM in series [2].
The matching figures for “AAAAAAGGAGGAUAUACGAACAUGUCGAAAGACGUGAAGGGACAUGAGGAUCACCCAUGUAGAAGGUUUAAAAA [Mat - Exclusion 2 - JL mod - D85]”: 19.2 nM and 35.9 nM.
In the case of “AAUUAGGUAGGAUAUACAUGAGGAUCACCCAUGUGGGAAAAAAACUACGAAAAAGAAUGUAGAAGGACCUAAAA [Mat - Exclusion 3 - Mayanna mod - D104]”, the “apparent KD of MS2 coat protein” value is 96.5 nM in series [1] and 20.3 nM in series [2].
The matching figures for “GGAAAACAUGAGGAUCACCCAUGUAAGGAUAUGCUAAAAAAAAAAAAAAAAAAAAAAUGCAGAAGGUACUAAAG [Amethyst 18]”: 118 nM and 34 nM.
In the same order, the values of “AAAUGUCUAGGAUAUACAUGAGGAUCACCCAUGUGUAAAAAUAAAUACACAAAAGAAAGUAGAAGGAGACAAAG [Mat - Exclusion 3 - Mayanna mod - D121]” are 59.9 nM and 21.6 nM.
The matching figures for “AUCGUUGGAGGAUAUGCUUGGAAAAAAAAAAAAAAAAAAAAACAUGAGGAUCACCCAUGUAGAAGGUCAAUGGA [Banishment 6 - Jieux - Exclusion 2]”: 30.5 nM and 49.9 nM.
Consider “AACAGUACAGGAUAUACAUGAGGAUCACCCAUGUGACAUAAAUAAAACAAAAAUAAAAGUAGAAGGGUACUGGA [Ruby 43]”, for which the “apparent KD of MS2 coat protein” value in series [1] stood at 60 nM; in series [2], 28.5 nM.
In the same order, the values of “AUCGAUCGAGGAUAUACAUGAGGAUCACCCAUGUAAAAAAAAAAAAAGGCCUCAGGAUGUAGAAGGCGACGCAA [JR_Exc003_Sub403]” are 18.7 nM and 18.5 nM.
